Reference: patent US20220387487A1, “COMPOSITIONS AND METHODS FOR TREATMENT OF CANCER” (Aleta Biotherapeutics Inc., priority 2019, published 2022)
Where a chain is given by its changes, count along the chain named. Names may count otherwise.

B1: W264S: CD19 variant (protein)
chain: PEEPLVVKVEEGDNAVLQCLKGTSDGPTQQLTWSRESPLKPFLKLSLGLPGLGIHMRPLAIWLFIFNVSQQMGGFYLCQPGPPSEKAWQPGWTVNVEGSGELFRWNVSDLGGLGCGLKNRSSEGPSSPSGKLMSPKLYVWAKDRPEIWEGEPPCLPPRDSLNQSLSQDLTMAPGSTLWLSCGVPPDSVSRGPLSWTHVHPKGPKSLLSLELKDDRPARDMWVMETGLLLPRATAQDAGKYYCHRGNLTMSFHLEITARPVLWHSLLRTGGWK
B2: W262H: CD19 variant (protein)
chain: B1 chain with W262H, S264W
B3: W262R: CD19 variant (protein)
chain: B1 chain with W262R, S264W
B4: W262G: CD19 variant (protein)
chain: B1 chain with W262G, S264W
B5: W262E: CD19 variant (protein)
chain: B1 chain with W262E, S264W
B6: W262Q: CD19 variant (protein)
chain: B1 chain with W262Q, S264W
B7: A232V: CD19 variant (protein)
chain: B1 chain with A232V, S264W
B8: G226S: CD19 variant (protein)
chain: B1 chain with G226S, S264W
B9: W264T: CD19 variant (protein)
chain: B1 chain with S264T
B10: W264G: CD19 variant (protein)
chain: B1 chain with S264G
B11: L59G: CD19 variant (protein)
chain: B1 chain with L59G, S264W
B12: G226T: CD19 variant (protein)
chain: B1 chain with G226T, S264W
B13: V260K: CD19 variant (protein)
chain: B1 chain with V260K, S264W
B14: W264P: CD19 variant (protein)
chain: B1 chain with S264P
B15: G269I: CD19 variant (protein)
chain: B1 chain with S264W, G269I
B16: W262S: CD19 variant (protein)
chain: B1 chain with W262S, S264W
B17: W264K: CD19 variant (protein)
chain: B1 chain with S264K
B18: Y240W: CD19 variant (protein)
chain: B1 chain with Y240W, S264W
B19: M223T: CD19 variant (protein)
chain: B1 chain with M223T, S264W
B20: K212S: CD19 variant (protein)
chain: B1 chain with K212S, S264W
B21: R215W: CD19 variant (protein)
chain: B1 chain with R215W, S264W
B22: H243T: CD19 variant (protein)
chain: B1 chain with H243T, S264W
B23: L228V: CD19 variant (protein)
chain: B1 chain with L228V, S264W
B24: L59S: CD19 variant (protein)
chain: B1 chain with L59S, S264W
B25: W264Q: CD19 variant (protein)
chain: B1 chain with S264Q
B26: W264R: CD19 variant (protein)
chain: B1 chain with S264R
B27: W262P: CD19 variant (protein)
chain: B1 chain with W262P, S264W
B28: W262A: CD19 variant (protein)
chain: B1 chain with W262A, S264W
B29: V260R: CD19 variant (protein)
chain: B1 chain with V260R, S264W
B30: I255V: CD19 variant (protein)
chain: B1 chain with I255V, S264W
B31: V16F: CD19 variant (protein)
chain: B1 chain with V16F, S264W
B32: L59E: CD19 variant (protein)
chain: B1 chain with L59E, S264W

test system: FMC63; experiment: CD19 variant binding to anti-CD19 antibody FMC63 (score); conditions: Table 1A, CD19 single mutants (positions of SEQ ID NO:2)
Sequence (as listed by the source): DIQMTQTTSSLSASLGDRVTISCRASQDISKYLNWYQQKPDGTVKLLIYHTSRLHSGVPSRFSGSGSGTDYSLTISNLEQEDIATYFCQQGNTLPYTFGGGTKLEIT
Sequence (as listed by the source): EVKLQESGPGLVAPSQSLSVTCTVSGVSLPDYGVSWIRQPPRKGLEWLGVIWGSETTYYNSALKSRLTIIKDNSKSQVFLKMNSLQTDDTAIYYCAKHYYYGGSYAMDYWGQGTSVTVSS

| Molecule | FMC63 Binding Score |
| --- | --- |
| B1 | 7.6 ± .5 |
| B2 | 6.7 ± 1. |
| B3 | 7.4 ± .3 |
| B4 | 6.4 ± .2 |
| B5 | 6.9 ± .3 |
| B6 | 6.8 ± .6 |
| B7 | 6.3 ± .2 |
| B8 | 6.1 ± .4 |
| B9 | 7.2 ± .8 |
| B10 | 7.2 ± .3 |
| B11 | 6.5 ± .3 |
| B12 | 7.3 ± .6 |
| B13 | 7.5 ± .7 |
| B14 | 8.6 ± 1.5 |
| B15 | 6.7 ± .8 |
| B16 | 7. ± .3 |

| Molecule | FMC63 Binding Score |
| --- | --- |
| B17 | 8. ± 1. |
| B18 | 6.3 ± .3 |
| B19 | 6.7 ± .4 |
| B20 | 6.8 ± .6 |
| B21 | 7.1 ± 1.1 |
| B22 | 7.1 ± .9 |
| B23 | 7.4 ± .4 |
| B24 | 6.4 ± .4 |
| B25 | 7.4 ± .8 |
| B26 | 6.9 ± .3 |
| B27 | 7.4 ± .7 |
| B28 | 6.9 ± .5 |
| B29 | 6.7 ± .3 |
| B30 | 6.4 ± .4 |
| B31 | 7. ± 1. |
| B32 | 6.3 ± .5 |
